The nature of this data set: soluble on expression in E. coli; label from the status in PepcDB or PDB records.
“SREIDYTAYPWFAGNMERQQTDNLLKSHASGTYLIRERPAEAERFAISIKFNDEVKHIKVVEKDNWIHITEAKKFDSLLELVEYYQCHSLKESFKQLDTTLKYPY”: the “soluble on expression in E. coli” value is “soluble”.
For the sequence “SRILVSIGESFGTSEKFQKINQMVCNSDRVLKRSAEGSNPPKPLKK”, the “soluble on expression in E. coli” value was “soluble”.
The same measure for “SRMVLRGLLSEHPKKQMIPVIIYGAGRSGRQLLEAVKQMREYSAAAFVDDDPKLWHTVIYDLAVYQPDAIAFLIERYGVEKILLAIPGATQEQRRRIINKLEAYPCEVLTIPGMKDLMDGKISIGTLKKISVSDLLGRDSVAPDDRLMSADIEGKTVMVTGAGGSIGSELCRQIIRRRPEKLLLFELSEFALYAIEKELRETCIQKRLDTEILPFLGSVQNRTLLE”: “not soluble”; for “SRPVGPLARRGCCSAPGTPEVPLTRERYPVQRLPFSTVSKQDLAAFERIVPGGVVTDPEALQAPNVDWLRTLRGCSKVLLRPRTSEEVSHILRHCHERNLAVNPQGGNTGMVGGSVPVFDEIILSTARMNRVLSFHSVSGILVCQAGCVLEELSRYVEERDFIMPLDLGAKGSCHIGGNVATNAGGLRFLRYGSLHGTVLGLEVVLADGTVLDCLTSLRKDNTGYDLKQLFIGSEGTLGIITTVSILCPPKPRAVNVAFLGCPGFAEVLQTFSTCKGMLGEILSAFEFMDAVCMQLVGRHLHLASPVQESPFYVLIETSGSNAGHDAEKLGHFLEHALGSGLVTDGTMATDQRKVKMLWALRERITEALSRDGYVYKYDLSLPVERLYDIVTDLRARLGPHAKHVVGYGHLGDGNLHLNVTAEAFSPSLLAALEPHVYEWTAGQQGSVSAEHGVGFRKRDVLGYSKPPGALQLMQQLKALLDPKGILNPYKTLPSQA”: “soluble”.
“SRVQILKDFVKQHFPATPLLDYALEVEKITTSKKPNLILNVDGFIGVAFVDMLRNCGSFTREEADEYVDIGALNGIFVLGRSMGFIGHYLDQKRLKQGLYRHPWDDISYVLPEHMSM”: the “soluble on expression in E. coli” value is on record as “soluble”.
As to “SRYAIYWTPEDGPLARFGRSWLGWDPVTAEPAAHPAIEDLPRDVALITQAPRKYGLHATLKPPFRLADGADVTDLHAAVVALCPYLAPVTLPGLKLDRIGGFLALVPAGNEEPLADLAAEVMRALDGFRAPLTEAELARRRPERLTPRQRGHLADWGYPYVLDDYRFHVTLTGELPEAELAEVVTVLEPLLEPILAEPVRIASLCLFAEASDGRFRMLERLPIT”, the “soluble on expression in E. coli” value is listed as “not soluble”.
Take “SSGLVPRGSHMSEMIYGIHAVQALLERAPERFQEVFILKGREDKRLLPLIHALESQGVVIQLANRQYLDEKSDGAVHQGIIARVKPGRQYQENDLPDLIASLDQPFLLILDGVTDPHNLGACLRSADAAGVHAVIVPKDRSAQLNATAKKVACGAAESVPLIRVTNLARTMRMLQEENIWIVGTAGEADHTLYQSKMTGRLALVMGAEGEGMRRLTREHCDELISIPMAGSVSSLNVSVATGICLFEAVRQRS”: the “soluble on expression in E. coli” value is “soluble”.
For the sequence “SSGRSVRAETRSRAKDDIKKVMAATERVRRWEKKWVTVGDTSLRIFKWVPVTETKQIYKPKGAGPAVRELKGFPTDVVLENARSVLLDFQDDNSNQSFLSDAYQSNTKVDSSSNSSPQHVSEAVSPSHPPYYRTEDSQPPTLGQESMEAEREASTTSSEVTDEPPTLIKEDVLSLSTQEEEEAIGAPPLKRVCTEHNSTVS”, the “soluble on expression in E. coli” value is on record as “soluble”.
“SSKSLKKLVEESREKNQPEVDMSDRGISNMLDVNGLFTLSHITQLVLSHNKLTMVPPNIAELKNLEVLNFFNNQIEELPTQISSLQKLKHLNLGMNRLNTLPRGFGSLPALEVLDLTYNNLSENSLPGNFFYLTTLRALYLSDNDFEILPPDIGKLTKLQILSLRDNDLISLPKEIGELTQLKELHIQGNRLTVLPPELGNLDLTGQKQVFKAENNPWVTPIADQFQLGVSHVFEYIRSETYKYLYGRHMQANPEPPKKNNDKSKKISRKPLAAKNR”: the “soluble on expression in E. coli” value is recorded as “soluble”.
The result for “SSNAKFDQFSSDFQTFNAKFDQFSNDMNAFRSDFQAFKDDFARFNQRFDNFATKYR” reads “soluble”.
The same measure for “SSPATPVPPDSILESPFEEMALVRGGWLWRQSSILRRWKRNWFALWLDGTLGYYHDETAQDEEDRVVIHFNVRDIKVGQECQDVQPPEGRSRDGLLTVNLREGSRLHLCAETRDDAIAWKTALMEANSTPAPAGATVPPRSRRVCPKVRCTTLSWNPCKVERRIWVRVYSPYQDYYEVVPPNAHEATYVRSYYGPPYAGPGVTHVIVREDPCYSSGAPLAMGMLAGAATGAALGSLMWSPCWF”: “not soluble”; for “SSQFWYSEETASRLAEELLQQAGEHGRIACLSAPSVYQKLKQLESVRSDGVSAVLLEFDRRFAAYGDEFVFYDYNNPLCLPEDLLPQSFDIVIADPPYLSEECLSKVTLTVKHLTKGKILLCTGAIMEEHAGKLLDLKMCSFLPRHNHNLANEFRCYVNYESRLLS”: “soluble”; for SSSEGFICPQCMKSLGSADELFKHYEAVHDAGND: “soluble”.
For the sequence “SSSESEKDKERLIQAAKLFFFHIRDLVSFINRFVELFNLTMKTQILPMNLNEESCIKDFFEQMIRNFKEMQLMVDGKHKQMQKEPLCSKVLTAMTSAVEKCATIAPHHTAEDMLRNIQTSGAALVLKTSHVLVNLETSLSLLMQFPIMGLRLSDLYREETKEQSDATSDATTSEKNKSPECPKATTEETLRKLQDVLSPENAHTPVEAAADELEQFVKSMEITLQVLQKSIKTMEGDIFVLTQVQGK”, the “soluble on expression in E. coli” value is given as “soluble”.
As for “STITTEEVLVTVFQFLEKATEYPYNDPHKTLALVVHGILLTHGFRPSEEEPPENVDNWSLSVENAKIPNCFEENKYGGSYRHYKSCMTFEVRMVPLDKYVVVNAVASDVDRVFYCELKLEKYFKDTVLEGGKLVVPLRNLKWSQILKNVTDMIAVLRTQIIYALVPDSAKEGYEAKTSETHVGQSTNQQSQDSRQFSLPSRDPLRVVPPVGSRYYPSAYIDEDRDSIPVLGQGDLYPGGLPRLERTFPSGPLDGSFAAPDNGSLMGPRHSMFQRRDQRPGPGNNMLPRGAVPPGARFDEFGPRFPPDETYSTLAGWRHRQEMPNNDVDEPPPPEMYM”, the “soluble on expression in E. coli” value was “soluble”.
As to “STPELLSGHIPPGHIPKPIVMPDYVAKYPVIQTDDDRERYKAVFQDQFSEYKELSAEVQAILRKFDELDTVMSRLPHHSENRQEHERISRIHEEFRKKKNDPSFLEKKERCDYLKNKLSHIKQRIQEYDKVMNWDTQGYP”, the “soluble on expression in E. coli” value is given as “soluble”.
The result for “STRFLEKRHKKKKATNKERILSYKPIHAIEQENSFRSSRCSNQTVEVSAVEDSRSALVGFFESNEPSESVTLKGKRERQLLASKTLISQLKEENCRLKERLNEVKDQLELKEKIALVQQENNDLEAEVLEWKAKFYESESEKERILASRSRPKDGYEIVQESLAQQPGTTSFYDYKFRQLVHKLTRMNAIHSKHNDKEYHKCDIVNESKDRSITFELFIDEEQEEIEYVPVQLNGVSQKLPSYLQDNISFDVQNAPIFFTKIMHSLFSK” reads “soluble”; that for “STSGPGGPAAAAGGRKENHQWYVCNREKLCESLQAVFVQSYLDQGTQIFLNNSIEKSGWLFIQLYHSFVSSVFSLFMSRTSINGLLGRGSMFVFSPDQFQRLLKINPDWKTHRLLDLGAGDGEVTKIMSPHFEEIYATELSETMIWQLQKKKYRVLGINEWQNTGFQYDVISCLNLLDRCDQPLTLLKDIRSVLEPTRGRVILALVLPFHPYVENVGGKWEKPSEILEIKGQNWEEQVNSLPEVFRKAGFVIEAFTRLPYLCEGDMYNDYYVLDDAVFVLKPV”, “soluble”; that for “STSLPQISTLMREKSVENKLKVKAKDDHMVPSGLYEVRAIQLPGGSWRHYYVDHSSKETYWILPYSHPDGASSHPLEKLPVYLPSYEECVDETNPLAVPEVCSPARD”, “soluble”.
Take “STSPTATKYDVFLSFRGVDTRRNFISFLYKEFVRRKIRTFKDDKELENGRRISPELKRAIEESKFAVVVVSVNYAASPWCLDELVKIMDFENKGSITVMPIFYGVDPCHLRRQIGDVAEQFKKHEAREEDHEKVASWRRALTSLASISGDCSSKCEDEAKLVDEIADKISKNLMTVTTISNGKNLVGIDTHMKALNKKLDLNSNKSLRVVGIWARGYNGRSALAKYVYQDICHHFDSHCFLGSVKRISQGRHLSHLHEEFLIRIQGSKHNLKDQKVLLVADDVYKLEQLDALAEDFNGFGPGSVVIITTQDKHLFVSAGIKLVYEVELLKFQKVCELFRQFAFKKRDISAAVKLVYYRATNWLGCLSGRSG”: the “soluble on expression in E. coli” value is given as “soluble”.
The same measure for “SVDYVFNKVMQPHQQMRIRVALGIEDDLRGGGYNVDQSKIAIGSGGFMGKGFLKGTQTKLKYVPEQDTDFIFCTVGEEQG”: “not soluble”; for “SVHKPSGQIMAVKRIRSTVDEKEQKQLLMDLDVVMRSSDCPYIVQFYGALFREGDCWICMELMSTSFDKFYKYVYSVLDDVIPEEILGKITLATVKALNHLKENLKIIHRDIKPSNILLDRSGNIKLCDFGISGQLVDSIAKTRDAGCRPYMAPERIDPSASRQGYDVRSDVWSLGITLYELATGRFPYPKWNSVFDQLTQVVKGDPPQLSNSEEREFSPSFINFVNLCLTKDESKRPKYKELLKHPFILMYEERTVEVACYVCKILDQMPATPSSPMYVD”: “soluble”; for “SVLQVLHIPDERLRKVAKPVEEVNAEIQRIVDDMFETMYAEEGIGLAATQVDIHQRIIVIDVSENRDERLVLINPELLEKSGETGIEEGCLSIPEQRALVPRAEKVKIRALDRDGKPFELEADGLLAICIQHEMDHLVGKLFMDYLSPLKQQRIRQKVEKLDRLKARAPNSSSVDKLAAALEHHHHHH”: “soluble”.
The same measure for “SVTSSQVMLMPAHDSAKPTGFGIMVTSLDLLRDHQKVIHTLWFIDDVVARELGGFDGFCRRERVLLLFVDSTNTTLSFTRNDMTCVPRQGGADSDHWLFKRHLALLLPLSFAQVYEGFISFYEEEDKHISWDIKSCSSSSHQ”: “not soluble”; for “SYYHHHHHHDYDIPTTENLYFQGAMGSFGSKDAAADGKPLVVTTIGMIADAVKNIAQGDVHLKGLMGPGVDPHLYTATAGDVEWLGNADLILYNGLHLETKMGEVFSKLRGSRLVVAVSETIPVSQRLSLEEAEFDPHVWFDVKLWSYSVKAVYESLCKLLPGKTREFTQRYQAYQQQLDKLDAYVRRKAQSLPAERRVLVTAHDAFGYFSRAYGFEVKGLQGVSTASEASAHDMQELAAFIAQRKLPAIFIESSIPHKNVEALRDAVQARGHVVQIGGELFSDAMGDAGTSEGTYVGMVTHNIDTIVAALAR”: “soluble”.
Consider “TAALVINANPFTLGHQYLVEKAAAENELLHLFMVSDDSSLIPFSVRKQLILAGTEHLSNICYHETGPYIISKSIFPSYFQKDQASVIESQARIDLAIFIQIAKYLGIKGRYVGEEPTSLVTGIYNQIMLQELPKQAIDCIVVPRKTYKDGPISASTVRKALKEGNEQILRELLPSTSLNYFLSPEAQPLIKKIQKADNVIHY”, for which the “soluble on expression in E. coli” value is “not soluble”.
With “TAWILMVPIALLYVKNWEEECCKQKKEEFREQFRESIQTLSAILKVGYSVENAIRETWKEICPIYKKKTRIIKEYETMVHQLDLNMTAEEVMKQFADRVKEEDVENFVTVFGAAKRLGGDSIAIIRHAADAIGEKMEVEREIQVMLTSKKLEFKIMCVIPFVIILYMRSAFPEFM”, the “soluble on expression in E. coli” value is on record as “not soluble”.
